Source: the Immune Epitope Database (IEDB)

How the values were obtained:
HLA-B*15:01 [1] = assay: IEDB peptide-MHC binding, purified MHC/competitive/fluorescence; ≥ and ≤ were set here for values at or beyond the usual limits of such assays; conditions: source organism: Zaire ebolavirus
HLA-A*02:01 [2] = assay: as above; conditions: source organism: Zaire ebolavirus
HLA-B*07:02 [3] = assay: as above; conditions: source organism: Zaire ebolavirus
HLA-A*24:02 = assay: as above; conditions: source organism: Zaire ebolavirus
HLA-B*39:01 = assay: IEDB peptide-MHC binding, purified MHC/competitive/fluorescence; filed as Kd, often an IC50 or EC50 that approximates it; ≥ and ≤ were set here for values at or beyond the usual limits of such assays
HLA-B*51:01 = assay: as above
HLA-A*02:19 = assay: as above
HLA-A*03:01 [4] = assay: as above
HLA-B*27:03 = assay: as above
HLA-B*15:01 [5] = assay: as above
HLA-A*69:01 [6] = assay: as above
HLA-A*02:12 = assay: as above
HLA-A*02:03 = assay: as above
HLA-A*02:01 [7] = assay: as above
HLA-B*46:01 = assay: as above
HLA-A*02:11 = assay: as above
HLA-A*68:02 = assay: as above
HLA-B*18:01 [8] = assay: as above
HLA-B*57:01 [9] = assay: as above
HLA-A*26:01 [10] = assay: as above
HLA-A*02:16 = assay: as above
HLA-B*15:17 = assay: as above; conditions: source organism: Vibrio vulnificus YJ016
HLA-A*01:01 = assay: IEDB peptide-MHC binding, purified MHC/direct/fluorescence; filed as Kd, often an IC50 or EC50 that approximates it; ≥ and ≤ were set here for values at or beyond the usual limits of such assays
HLA-A*29:02 [11] = assay: as above; conditions: source organism: Entamoeba histolytica HM-1:IMSS
HLA-B*44:02 = assay: as above
HLA-B*15:01 [12] = assay: as above
HLA-A*69:01 [13] = assay: as above
HLA-B*40:01 = assay: as above
HLA-A*02:01 [14] = assay: as above
HLA-B*58:01 = assay: as above
HLA-A*30:01 = assay: as above
HLA-B*07:02 [15] = assay: as above
HLA-B*18:01 [16] = assay: as above; conditions: source organism: Entamoeba histolytica HM-1:IMSS
HLA-B*57:01 [17] = assay: as above; conditions: source organism: Entamoeba histolytica HM-1:IMSS
HLA-A*29:02 [18] = assay: IEDB peptide-MHC binding, purified MHC/competitive/fluorescence; filed as Kd, often an IC50 or EC50 that approximates it; ≥ and ≤ were set here for values at or beyond the usual limits of such assays
HLA-A*03:01 [19] = assay: IEDB peptide-MHC binding, purified MHC/direct/fluorescence; filed as Kd, often an IC50 or EC50 that approximates it; ≥ and ≤ were set here for values at or beyond the usual limits of such assays; conditions: source organism: La Crosse virus
HLA-A*31:01 = assay: as above; conditions: source organism: La Crosse virus
HLA-A*11:01 = assay: as above; conditions: source organism: La Crosse virus
HLA-B*08:01 = assay: as above; conditions: source organism: La Crosse virus
HLA-B*27:05 = assay: as above; conditions: source organism: La Crosse virus
HLA-A*24:03 = assay: as above; conditions: source organism: La Crosse virus
HLA-A*26:01 [20] = assay: as above; conditions: source organism: La Crosse virus
[21] = source organism: Campylobacter jejuni subsp. jejuni NCTC 11168 = ATCC 700819
[22] = source organism: Vibrio vulnificus YJ016
[23] = source organism: Entamoeba histolytica HM-1:IMSS
[24] = source organism: Cryptosporidium parvum Iowa II
[25] = source organism: La Crosse virus

AAVSHLTTL
IC50 (HLA-B*15:01 [1]): 16.5 µM | IC50 (HLA-A*02:01 [2]): 1.05 µM | IC50 (HLA-B*07:02 [3]): 21.7 µM | IC50 (HLA-A*24:02): 2.25 µM

AELIDSFTW
Kd (HLA-B*39:01; [21]): ≥ 20 µM | Kd (HLA-B*51:01; [21]): ≥ 20 µM | Kd (HLA-A*02:19; [21]): ≥ 20 µM | Kd (HLA-A*03:01 [4]; [21]): ≥ 20 µM | Kd (HLA-B*27:03; [21]): ≥ 20 µM | Kd (HLA-B*15:01 [5]; [21]): ≥ 20 µM | Kd (HLA-A*69:01 [6]; [21]): ≥ 20 µM | Kd (HLA-A*02:12; [21]): ≥ 20 µM | Kd (HLA-A*02:03; [21]): ≥ 20 µM | Kd (HLA-A*02:01 [7]; [21]): ≥ 20 µM | Kd (HLA-B*46:01; [21]): ≥ 20 µM | Kd (HLA-A*02:11; [21]): ≥ 20 µM | Kd (HLA-A*68:02; [21]): ≥ 20 µM | Kd (HLA-B*18:01 [8]; [21]): 0.462 µM | Kd (HLA-B*57:01 [9]; [21]): ≥ 20 µM | Kd (HLA-A*26:01 [10]; [21]): ≥ 20 µM | Kd (HLA-A*02:16; [21]): ≥ 20 µM

DFISMYFPW
Kd (HLA-B*39:01; [22]): ≥ 20 µM | Kd (HLA-B*51:01; [22]): ≥ 20 µM | Kd (HLA-A*02:19; [22]): ≥ 20 µM | Kd (HLA-A*03:01 [4]; [22]): ≥ 20 µM | Kd (HLA-B*27:03; [22]): ≥ 20 µM | Kd (HLA-B*15:01 [5]; [22]): ≥ 20 µM | Kd (HLA-B*15:17): ≥ 20 µM | Kd (HLA-A*69:01 [6]; [22]): ≥ 20 µM | Kd (HLA-A*02:12; [22]): ≥ 20 µM | Kd (HLA-A*02:03; [22]): ≥ 20 µM | Kd (HLA-A*02:01 [7]; [22]): ≥ 20 µM | Kd (HLA-B*46:01; [22]): ≥ 20 µM | Kd (HLA-A*02:11; [22]): ≥ 20 µM | Kd (HLA-A*68:02; [22]): ≥ 20 µM | Kd (HLA-B*18:01 [8]; [22]): 0.946 µM | Kd (HLA-B*57:01 [9]; [22]): ≥ 20 µM | Kd (HLA-A*26:01 [10]; [22]): ≥ 20 µM | Kd (HLA-A*02:16; [22]): ≥ 20 µM

ENTNTSKST
IC50 (HLA-B*07:02 [3]): ≥ 200 µM

ETMKPAAMV
Kd (HLA-A*01:01; [23]): ≥ 20 µM | Kd (HLA-A*29:02 [11]): ≥ 20 µM | Kd (HLA-B*44:02; [23]): ≥ 20 µM | Kd (HLA-B*15:01 [12]; [23]): ≥ 20 µM | Kd (HLA-A*69:01 [13]; [23]): 0.0015 µM | Kd (HLA-B*40:01; [23]): ≥ 20 µM | Kd (HLA-A*02:01 [14]; [23]): ≥ 20 µM | Kd (HLA-B*58:01; [23]): ≥ 20 µM | Kd (HLA-A*30:01; [23]): ≥ 20 µM | Kd (HLA-B*07:02 [15]; [23]): ≥ 20 µM | Kd (HLA-B*18:01 [16]): ≥ 20 µM | Kd (HLA-B*57:01 [17]): ≥ 20 µM

FLYPSWSLY
Kd (HLA-B*39:01; [24]): ≥ 20 µM | Kd (HLA-A*02:19; [24]): ≥ 20 µM | Kd (HLA-B*27:03; [24]): ≥ 20 µM | Kd (HLA-A*69:01 [6]; [24]): ≥ 20 µM | Kd (HLA-A*02:01 [7]; [24]): 0.169 µM | Kd (HLA-B*57:01 [9]; [24]): ≥ 20 µM | Kd (HLA-A*02:16; [24]): 0.101 µM

KTRMEDYYL
Kd (HLA-B*39:01; [23]): ≥ 20 µM | Kd (HLA-B*51:01; [23]): ≥ 20 µM | Kd (HLA-A*02:19; [23]): ≥ 20 µM | Kd (HLA-A*03:01 [4]; [23]): ≥ 20 µM | Kd (HLA-A*29:02 [18]; [23]): ≥ 20 µM | Kd (HLA-B*27:03; [23]): ≥ 20 µM | Kd (HLA-B*15:01 [5]; [23]): ≥ 20 µM | Kd (HLA-A*02:12; [23]): ≥ 20 µM | Kd (HLA-A*02:03; [23]): ≥ 20 µM | Kd (HLA-A*02:01 [7]; [23]): ≥ 20 µM | Kd (HLA-B*46:01; [23]): ≥ 20 µM | Kd (HLA-B*18:01 [8]; [23]): ≥ 20 µM | Kd (HLA-B*57:01 [9]; [23]): 0.151 µM | Kd (HLA-A*26:01 [10]; [23]): ≥ 20 µM

QWALLPYLF
Kd (HLA-A*29:02 [18]; source organism: Brucella canis ATCC 23365): ≤ 0.0001 µM

RRTRREAIV
IC50 (HLA-A*02:01 [2]): ≥ 5060 µM | IC50 (HLA-B*07:02 [3]): 37.7 µM | IC50 (HLA-A*24:02): 63.3 µM

YRKPSGGVF
Kd (HLA-A*01:01; [25]): ≥ 20 µM | Kd (HLA-A*03:01 [19]): ≥ 20 µM | Kd (HLA-A*31:01): ≥ 20 µM | Kd (HLA-A*11:01): ≥ 20 µM | Kd (HLA-B*44:02; [25]): ≥ 20 µM | Kd (HLA-B*15:01 [12]; [25]): 0.797 µM | Kd (HLA-A*69:01 [13]; [25]): ≥ 20 µM | Kd (HLA-B*08:01): 0.166 µM | Kd (HLA-B*40:01; [25]): ≥ 20 µM | Kd (HLA-A*02:01 [14]; [25]): ≥ 20 µM | Kd (HLA-B*58:01; [25]): ≥ 20 µM | Kd (HLA-A*30:01; [25]): ≥ 20 µM | Kd (HLA-B*27:05): 0.232 µM | Kd (HLA-A*24:03): 4.78 µM | Kd (HLA-B*07:02 [15]; [25]): 6.06 µM | Kd (HLA-A*26:01 [20]): ≥ 20 µM
